Data taken from the Immune Epitope Database (IEDB).
Blank lines part the entries; values can stand above or below the sequence they belong to.

What was measured:
HLA-C*06:02 = test: IEDB peptide-MHC binding, purified MHC/direct/fluorescence; filed as Kd, often an IC50 or EC50 that approximates it; ≥ and ≤ were set here for values at or beyond the usual limits of such assays; conditions: source organism: Shigella boydii CDC 3083-94
HLA-A*32:15 = test: IEDB peptide-MHC binding, purified MHC/competitive/fluorescence; filed as Kd, often an IC50 or EC50 that approximates it; ≥ and ≤ were set here for values at or beyond the usual limits of such assays; conditions: source organism: Shigella boydii CDC 3083-94
HLA-B*40:13 = test: as above; conditions: source organism: Shigella boydii CDC 3083-94
HLA-B*15:42 = test: as above
HLA-A*29:02 [1] = test: as above; conditions: source organism: Shigella boydii CDC 3083-94
HLA-B*18:01 [2] = test: as above; conditions: source organism: Shigella boydii CDC 3083-94
HLA-B*45:06 = test: as above
HLA-A*02:01 = test: as above; conditions: source organism: Shigella boydii CDC 3083-94
HLA-A*02:19 = test: as above; conditions: source organism: Shigella boydii CDC 3083-94
HLA-B*57:01 [3] = test: as above; conditions: source organism: Shigella boydii CDC 3083-94
HLA-B*83:01 = test: as above
HLA-A*32:07 = test: as above; conditions: source organism: Shigella boydii CDC 3083-94
HLA-A*26:01 = test: as above; conditions: source organism: Shigella boydii CDC 3083-94
HLA-B*27:20 = test: as above; conditions: source organism: Shigella boydii CDC 3083-94
HLA-A*03:19 = test: as above; conditions: source organism: Shigella boydii CDC 3083-94
HLA-B*27:03 [4] = test: as above; conditions: source organism: Shigella boydii CDC 3083-94
HLA-C*14:02 = test: as above
HLA-B*51:01 = test: as above
HLA-C*05:01 = test: IEDB peptide-MHC binding, purified MHC/direct/fluorescence; filed as Kd, often an IC50 or EC50 that approximates it; ≥ and ≤ were set here for values at or beyond the usual limits of such assays; conditions: source organism: Giardia lamblia ATCC 50803
HLA-A*23:01 = test: as above; conditions: source organism: Giardia lamblia ATCC 50803
HLA-A*68:02 = test: as above; conditions: source organism: Giardia lamblia ATCC 50803
HLA-A*29:02 [5] = test: as above; conditions: source organism: Giardia lamblia ATCC 50803
HLA-B*18:01 [6] = test: as above; conditions: source organism: Giardia lamblia ATCC 50803
HLA-C*12:03 = test: as above; conditions: source organism: Giardia lamblia ATCC 50803
HLA-A*03:01 = test: as above; conditions: source organism: Giardia lamblia ATCC 50803
HLA-B*57:01 [7] = test: as above; conditions: source organism: Giardia lamblia ATCC 50803
HLA-A*66:01 = test: as above; conditions: source organism: Giardia lamblia ATCC 50803
HLA-A*24:03 = test: as above; conditions: source organism: Giardia lamblia ATCC 50803
HLA-B*27:03 [8] = test: as above; conditions: source organism: Giardia lamblia ATCC 50803
HLA-B*07:02 = test: IEDB peptide-MHC binding, purified MHC/competitive/fluorescence; filed as Kd, often an IC50 or EC50 that approximates it; ≥ and ≤ were set here for values at or beyond the usual limits of such assays; conditions: source organism: Giardia lamblia ATCC 50803
HLA-B*44:02 = test: as above; conditions: source organism: Giardia lamblia ATCC 50803
HLA-B*27:05 = test: as above; conditions: source organism: Giardia lamblia ATCC 50803
HLA-B*40:01 = test: as above; conditions: source organism: Giardia lamblia ATCC 50803
HLA-B*08:01 = test: as above; conditions: source organism: Giardia lamblia ATCC 50803
HLA-A*01:01 = test: as above; conditions: source organism: Giardia lamblia ATCC 50803
HLA-B*58:01 = test: as above; conditions: source organism: Giardia lamblia ATCC 50803
HLA-B*53:01 = test: as above; conditions: source organism: Giardia lamblia ATCC 50803
HLA-B*14:02 [9] = test: as above; conditions: source organism: Giardia lamblia ATCC 50803
HLA-A*30:02 = test: as above; conditions: source organism: Giardia lamblia ATCC 50803
HLA-A*11:01 = test: as above; conditions: source organism: Giardia lamblia ATCC 50803
HLA-A*68:23 = test: as above; conditions: source organism: Giardia lamblia ATCC 50803
HLA-B*14:02 [10] = test: IEDB peptide-MHC binding, purified MHC/direct/fluorescence; filed as Kd, often an IC50 or EC50 that approximates it; ≥ and ≤ were set here for values at or beyond the usual limits of such assays; conditions: source organism: Homo sapiens
[11] = source organism: Shigella boydii CDC 3083-94
[12] = source organism: Giardia lamblia ATCC 50803

Sequence: GMMRWCMPV
- Kd (HLA-C*06:02): ≥ 20 µM
- Kd (HLA-A*32:15): 0.813 µM
- Kd (HLA-B*40:13): 0.201 µM
- Kd (HLA-B*15:42; [11]): 16.9 µM
- Kd (HLA-A*29:02 [1]): 0.0515 µM
- Kd (HLA-B*18:01 [2]): ≥ 20 µM
- Kd (HLA-B*45:06; [11]): 0.0692 µM
- Kd (HLA-A*02:01): ≤ 0.0001 µM
- Kd (HLA-A*02:19): 0.0002 µM
- Kd (HLA-B*57:01 [3]): ≥ 20 µM
- Kd (HLA-B*83:01; [11]): ≥ 5 µM
- Kd (HLA-A*32:07): 0.0052 µM
- Kd (HLA-A*26:01): ≥ 20 µM
- Kd (HLA-B*27:20): 0.0004 µM
- Kd (HLA-A*03:19): 1.13 µM
- Kd (HLA-B*27:03 [4]): ≥ 20 µM
- Kd (HLA-C*14:02; [11]): 0.0936 µM
- Kd (HLA-B*51:01; [11]): ≥ 20 µM

Sequence: MTYLDGHPV
- Kd (HLA-C*05:01): ≥ 20 µM
- Kd (HLA-A*23:01): ≥ 20 µM
- Kd (HLA-A*68:02): ≤ 0.001 µM
- Kd (HLA-A*29:02 [5]): 0.006 µM
- Kd (HLA-B*18:01 [6]): ≥ 20 µM
- Kd (HLA-C*12:03): 0.153 µM
- Kd (HLA-A*03:01): ≥ 20 µM
- Kd (HLA-B*57:01 [7]): ≥ 20 µM
- Kd (HLA-A*66:01): 0.134 µM
- Kd (HLA-A*24:03): ≥ 20 µM
- Kd (HLA-B*27:03 [8]): ≥ 20 µM
- Kd (HLA-B*07:02): ≥ 5 µM
- Kd (HLA-B*44:02): ≥ 5 µM
- Kd (HLA-B*15:42; [12]): ≥ 5 µM
- Kd (HLA-B*27:05): ≥ 5 µM
- Kd (HLA-B*40:01): ≥ 5 µM
- Kd (HLA-B*45:06; [12]): ≥ 5 µM
- Kd (HLA-B*08:01): ≥ 5 µM
- Kd (HLA-A*01:01): ≥ 5 µM
- Kd (HLA-B*58:01): ≥ 5 µM
- Kd (HLA-B*83:01; [12]): ≥ 5 µM
- Kd (HLA-B*53:01): ≥ 5 µM
- Kd (HLA-B*14:02 [9]): ≥ 5 µM
- Kd (HLA-A*30:02): ≥ 5 µM
- Kd (HLA-A*11:01): 0.138 µM
- Kd (HLA-A*68:23): ≤ 0.0001 µM
- Kd (HLA-C*14:02; [12]): 0.0303 µM
- Kd (HLA-B*51:01; [12]): ≥ 5 µM

- Kd (HLA-B*14:02 [10]): 0.294 µM
Sequence: NEVLHQEL
